Our source for the protein stability index values is the supplement of paper PMC10567573.

A short description of this data set: protein stability index of a GFP-peptide fusion (GPS, HEK-293T) (PSI 1-6); higher = more stable.
The mark [1] stands for this setting: treatment: DMSO, c terminus: a fixed tail appended.
Setting [2] is: treatment: MLN4924 1 uM, 8 h, c terminus: a fixed tail appended.
The mark [3] stands for this setting: treatment: DMSO, c terminus: native.
[4] abbreviates: treatment: MLN4924 1 uM, 8 h, c terminus: native.

± gives the standard deviation.
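Also: 24-mer peptide tiles fused after GFP, lentivirally expressed, FACS-sorted into six equal bins by GFP/DsRed ratio, decoded by Illumina sequencing, PSI is the read-weighted mean bin number.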

TDDSYSCHCLKGFTLNPDKKTCRR [MATN2]: the protein stability index by setting is: under setting [1], 3.27 ± 0.78; under setting [2], 4.03 ± 0.7.

With TEATISIREDEVHRLGSPYGHCTA [SCNN1D], the protein stability index runs as follows: under setting [1], 3.93 ± 0.29; under setting [2], 3.88 ± 0.16.

As for TEKSGKREFDVRQTPQVNINPFTP [WEE1], the protein stability index runs as follows: under setting [1], 4.42 ± 0.25; under setting [2], 4.25 ± 0.094.

TESQLTPCIRNVTSPTRQHHVERE [BTBD10]: the protein stability index runs as follows: under setting [1], 4.99 ± 0.16; under setting [2], 4.95 ± 0.17.

As to TFASLETVGIYFGLVYRIHSVLQG [TMEM40], the protein stability index turned out to be 3.59 ± 0.44 under setting [1] and 3.24 ± 0.23 under setting [2].

TFIVSCKFSPDGKYVVSGFDVDHG [WDR88]: the protein stability index under setting [1] worked out at 2.79 ± 0.39 and the protein stability index under setting [2] was 2.81 ± 0.53.

As for TFQEPLYPALRLWEGAISIPRLP [TRIM14], the protein stability index came out at 2.65 ± 0.62 under setting [3] and 2.67 ± 0.66 under setting [4].

For TFRQYCGAACTCHVRNPLSACSIM [RNF208], the protein stability index under setting [1] came out at 2.21 ± 0.4 and the protein stability index under setting [2] is 2.2 ± 0.27.

For TGTSNTTAIKSIEFARKGSCFLIN [RBBP5], the protein stability index is, setting by setting: under setting [1], 2.42 ± 0.26; under setting [2], 2.42 ± 0.22.

Regarding THLENPTRYHLQQARRQQVKQYLS [TFE3], the protein stability index by setting is: under setting [1], 3.38 ± 0.17; under setting [2], 3.64 ± 0.22.

Sequence TIAPTLIADLFVADQRSRMLSIFY [SPNS1] had a protein stability index under setting [1] of 2.87 ± 0.66 and a protein stability index under setting [2] of 2.66 ± 0.6.

Consider TIEELQQKILCSKSENARLVVQID [KRT33B], for which the protein stability index came out at 3.38 ± 0.19 under setting [1] and 3.28 ± 0.53 under setting [2].

Sequence TIEGTSDDLTVVDAASLRRQIIKL [MFF] came in with a protein stability index under setting [1] of 4 ± 0.34 and a protein stability index under setting [2] of 4.08 ± 0.16.

Regarding TITEEIRDGKVISSREHVQSRPL [KRT36], the protein stability index reads like this: under setting [3], 5.23 ± 0.29; under setting [4], 5.26 ± 0.21.

Turning to TLASAGGPDNLVLLNPEKYKAKSR [ADD1], the protein stability index runs as follows: under setting [1], 4.22 ± 0.22; under setting [2], 4.31 ± 0.2.

Turning to TLEITLKDIVQTVRSRLEEAGIKV [TENT5C], the protein stability index amounted to 2.02 ± 0.35 under setting [1] and 2.18 ± 0.35 under setting [2].

Consider TLKQQHQQAVEQIAKAEETHSSLS [CCDC89], for which the protein stability index by setting is: under setting [1], 5.07 ± 0.21; under setting [2], 5.09 ± 0.14.

The sequence TLRLEKLGHPALSQEEGKSALEDQ [PPFIA4] had a protein stability index under setting [1] of 5.38 ± 0.19 and a protein stability index under setting [2] of 5.14 ± 0.21.

Turning to TLVDEGDLYNWEVAIFGPPNTYYE [CDC34], the protein stability index runs as follows: under setting [1], 2.33 ± 0.38; under setting [2], 2.8 ± 0.26.

On to TMGLAGRARVKEKFSPEAFTEQLY [ALG2], for which the protein stability index by setting is: under setting [1], 2.94 ± 0.26; under setting [2], 2.96 ± 0.13.

Consider TMLTVIEQPVPPTPATPEDPAPLW [EMID1], for which the protein stability index turned out to be 3.76 ± 0.28 under setting [1] and 3.77 ± 0.23 under setting [2].

For the sequence TNNKVYAAKIIPHSRVAKPHQREK [PLK2], the protein stability index runs as follows: under setting [1], 3.71 ± 0.2; under setting [2], 4.08 ± 0.57.

Take TPASQSPKKPPAKDPLADLNIKDF [SNAP91]: the protein stability index runs as follows: under setting [1], 5.06 ± 0.092; under setting [2], 4.87 ± 0.25.

Take TPKCSSPRGQEGSRQDKPLSPAGS [YJU2B]: the protein stability index by setting is: under setting [1], 5 ± 0.23; under setting [2], 5.21 ± 0.23.

For the sequence TPYKPPAGRAAAPELSYRVCVGSD [MYORG], the protein stability index under setting [1] was found to be 3.94 ± 0.24 and the protein stability index under setting [2] was determined as 4.13 ± 0.27.

Regarding TQHHFAFQNAERAFKAAALIQRWY [PPEF2], the protein stability index came to 3.09 ± 0.14 under setting [1] and 3.08 ± 0.18 under setting [2].

With TQIKGLKNKPKKMGHIKPDLIDVD [PHTF1], the protein stability index was determined as 4.42 ± 0.16 under setting [1] and 4.34 ± 0.26 under setting [2].

Regarding TQRQFTILNFNDLMSSAVPMTPED [AASDHPPT], the protein stability index came to 3.74 ± 0.14 under setting [1] and 3.38 ± 0.35 under setting [2].

On to TQRRTSMGGTQQQFVEGVRMEEIV [CTNNB1], for which the protein stability index turned out to be 4.05 ± 0.47 under setting [1] and 4.26 ± 0.37 under setting [2].

For TRRKKGKKDKDISKEKDTQNQNIT [KMT2E], the protein stability index under setting [1] came to 4.75 ± 0.12 and the protein stability index under setting [2] came to 5.07 ± 0.1.

TSFPGRGSIPEFFHIMKRKFTNKE [AASDHPPT]: the protein stability index runs as follows: under setting [1], 3.179 ± 0.024; under setting [2], 3.21 ± 0.72.

Regarding TSPLTAEKLCIYTDNSIKPQELLE [CCND2], the protein stability index runs as follows: under setting [1], 4.05 ± 0.23; under setting [2], 4.08 ± 0.27.

Consider TSSCPNVSERSFDNVRSLKVESGA [CRYBA1], for which the protein stability index by setting is: under setting [1], 5 ± 0.44; under setting [2], 4.63 ± 0.2.

Consider TSSPAIWKFPVPVLKTSRSTPLSP [KLHL13], for which the protein stability index is, setting by setting: under setting [1], 3.19 ± 0.21; under setting [2], 3.32 ± 0.086.

Turning to TTYLKTIEVFDPDANTWRLYGGMN [KLHL20], the protein stability index is 2.34 ± 0.23 under setting [1] and 2.26 ± 0.042 under setting [2].

In the case of TWTKHAEGGIFTSPNYPSKYPPDR [NETO1], the protein stability index reads like this: under setting [1], 3.94 ± 0.19; under setting [2], 3.85 ± 0.065.

As for TYKCTKQLLSERFGRGSRTVDLEL [ARFIP2], the protein stability index is 2.43 ± 0.32 under setting [1] and 2.33 ± 0.18 under setting [2].

Consider TYMSADDLRINLWNFEITNQSFNI [PPP2R2B], for which the protein stability index is, setting by setting: under setting [1], 2.43 ± 0.66; under setting [2], 2.53 ± 0.3.

In the case of VAERGTTQGCHPAWEPRSESQASR [ZNF8], the protein stability index is 4.48 ± 0.22 under setting [1] and 4.6 ± 0.2 under setting [2].

Turning to VAPADVRRLLSYCKGRDHGVLDAL [ZSWIM9], the protein stability index reads like this: under setting [1], 2.46 ± 0.28; under setting [2], 2.68 ± 0.46.

Take VAPATWSAGVPPSAPLQGAVPPTS [SNAP91]: the protein stability index runs as follows: under setting [1], 4.38 ± 0.25; under setting [2], 4.39 ± 0.29.

In turn, VAQGPFDSFVVQYEDTNGQPQALL [TNXB] showed a protein stability index under setting [1] of 3.43 ± 0.44 and a protein stability index under setting [2] of 3.16 ± 0.46.

For VARCEVMAAMFNGNYMEAKSVLIP [RHOBTB3], the protein stability index is, setting by setting: under setting [1], 2.16 ± 0.29; under setting [2], 2.24 ± 0.17.

With VDDFRLKYENELALRQSVEADING [KRT13], the protein stability index by setting is: under setting [1], 4.67 ± 0.15; under setting [2], 4.62 ± 0.2.

VDFLEPDSGTCPEVDEEGFTVRPD [FCHO1] yielded a protein stability index under setting [1] of 5.45 ± 0.086 and a protein stability index under setting [2] of 5.43 ± 0.1.

In turn, VDIGMMKEFILTDEEVQRKREMIL [VDR] showed a protein stability index under setting [1] of 3.24 ± 0.19 and a protein stability index under setting [2] of 3.24 ± 0.19.

As for VEKNEHCIENNIDLQVNRNFSLAT [R3HDM1], the protein stability index under setting [1] is 4 ± 0.23 and the protein stability index under setting [2] was found to be 3.93 ± 0.31.

Turning to VELYRIKFKESFAEMNRGSNEWKT [COX4I1], the protein stability index was 2.23 ± 0.29 under setting [1] and 2.07 ± 0.45 under setting [2].

With VERDNMEEDNVEESEEEGPWEPPV [HDAC6], the protein stability index is, setting by setting: under setting [1], 5.58 ± 0.19; under setting [2], 5.25 ± 0.21.

On to VFAPVYFPEELHRKAALEQDLAFW [HMOX1], for which the protein stability index is, setting by setting: under setting [1], 2.14 ± 0.43; under setting [2], 2.4 ± 0.38.

Turning to VFEKAGVSISVVHGNLSEEAAKQM [CPOX], the protein stability index is, setting by setting: under setting [1], 3.72 ± 0.15; under setting [2], 3.65 ± 0.4.

As to VFIIRKSLLDELMEVQHFRTIYHM [SOAT2], the protein stability index reads like this: under setting [1], 2.85 ± 0.61; under setting [2], 2.58 ± 0.46.

As to VFLVDICLLTYGMTSSSAYYYTKV [PKD2L1], the protein stability index was found to be 2.98 ± 0.2 under setting [1] and 2.84 ± 0.58 under setting [2].

Sequence VGCKGSKAGIEQEGYWLPGDEISI [ZMYND11] had a protein stability index under setting [1] of 3.18 ± 0.32 and a protein stability index under setting [2] of 3.13 ± 0.31.

For the sequence VGFRLCNSTGGDCFYRGYTSGVAA [SCNN1D], the protein stability index runs as follows: under setting [1], 2.01 ± 0.58; under setting [2], 1.94 ± 0.54.

Regarding VGNYRLKEYEKALKYVRGLLQTEP [FIS1], the protein stability index reads like this: under setting [1], 2.19 ± 0.22; under setting [2], 2.5 ± 0.32.

As to VGSLPVIVVGRLKVALEPQLWELG [LPCAT4], the protein stability index was determined as 2.74 ± 0.036 under setting [1] and 2.88 ± 0.6 under setting [2].

Take VGYGDMHPVTIGGKIVGSLCAIAG [KCNA3]: the protein stability index under setting [1] turned out to be 2.67 ± 0.11 and the protein stability index under setting [2] worked out at 2.26 ± 0.35.

For the sequence VHTGCHKKLGPEARRPRTRWGKN, the protein stability index reads like this: under setting [3], 2.8 ± 0.5; under setting [4], 3.08 ± 0.69.

With VIDAEPFIRCSLQCRDLVDEAKKF [KLHL12], the protein stability index under setting [1] came out at 2.58 ± 0.46 and the protein stability index under setting [2] was 2.35 ± 0.065.

VILHLKEDQTEYLEERRVKEVVKK [HSP90AB1]: the protein stability index came to 2.57 ± 0.25 under setting [1] and 2.77 ± 0.36 under setting [2].

On to VKTGEDGSNLDDAKGLAESLELPK [FANCE], for which the protein stability index reads like this: under setting [1], 5.44 ± 0.18; under setting [2], 5.49 ± 0.14.

VKYIVERTMLDFPQHVSSDKEVRA [NLN] showed a protein stability index under setting [1] of 2.82 ± 0.36 and a protein stability index under setting [2] of 2.69 ± 0.25.

For the sequence VLCLIVLPLALYTATFAVHFMVLS [POMT2], the protein stability index was 3.17 ± 0.19 under setting [1] and 3.34 ± 0.43 under setting [2].

On to VLFAVGGWCSGDAISSVERYDPQT [KLHL20], for which the protein stability index reads like this: under setting [1], 2.12 ± 0.21; under setting [2], 2.29 ± 0.15.

On to VLHIVASLIILHLSGATKKGTEKQ [NETO1], for which the protein stability index under setting [1] is 2.78 ± 0.57 and the protein stability index under setting [2] stood at 2.9 ± 0.65.

For the sequence VLLGEPLVVMAPSPSESSETVLAL [DENND6A], the protein stability index is, setting by setting: under setting [1], 2.82 ± 0.36; under setting [2], 2.52 ± 0.34.

Consider VMSGKMSVSKAQSIYGIPHSTLEY [LCOR], for which the protein stability index runs as follows: under setting [1], 2.38 ± 0.19; under setting [2], 2.23 ± 0.076.

With VNLFLHFTVNPKPRVEYIDRPRCC [BTBD1], the protein stability index is, setting by setting: under setting [1], 3.43 ± 0.18; under setting [2], 3.12 ± 0.28.

VNQPNNNGFTPLHFAAASTHGALC [ANKRD44] yielded a protein stability index under setting [1] of 2.99 ± 0.3 and a protein stability index under setting [2] of 3.06 ± 0.33.

In the case of VQERLTKQIAVAITEALRPAGVGV [GCH1], the protein stability index worked out at 2.23 ± 0.2 under setting [1] and 2.17 ± 0.13 under setting [2].

On to VQLIDDFKISGMNGIHVCMVFEVL [SRPK2], for which the protein stability index is, setting by setting: under setting [1], 2.73 ± 0.62; under setting [2], 2.71 ± 0.32.
